Measurements taken from US5792457A, “Antibody recognizing endothelial cell ligand for leukocyte CR3” (priority 1995, dated 1998).

Assay: Overlay on thin-layer chromatography plates containing glycolipids
Assay type: binding
From the text: 2) The DNA sequence from nucleotide position 3674 to 4088 (bounded by XhoI sites) which corresponds to the CRD was amplified by the polymerase chain reaction and ligated into one of the pET expression vectors (Rosenberg et al. (1987), Gene 56, 125-135). Expression of the polypeptide in E. coli utilized the T7 RNA polymerase promoter system (Tabor, S. & Richardson, C.C. (1985), Proc. Natl. Acad. Sci. U.S.A. 82). [^35 S] […] Cell lysates containing the expressed protein were overlaid on thin-layer chromatography plates containing glycolipid standards and the binding pattern was compared to that of FHA.

B1: CRD protein: expressed polypeptide of FHA carbohydrate recognition domain, residues 1141-1279, 18kD (protein, UniProt P12255 1141-1279, looked up, fragment)
chain: LEHSTIESKISQSVLAAKGDKGKPAVSVKVAKKLFLNGTLRAVNDNNETMSGRQIDVVDGRPQITDAVTGEARKDESVVSDAALVADGGPIVVEAGELVSHAGGIGNGRNKENGASVTVRTTGNLVNKGYISAGKQGVL
binding to lactosylceramides (in words): bound to these carbohydrates in a pattern similar to FHA, especially in the ability to bind to lactosylceramides
